Data published in the supplement of paper PMC9170038.

Legend:
[1] = system: MS2 coat protein; experiment: apparent KD of MS2 coat protein, switch ON state; designed switch direction (-1 OFF switch, 1 ON switch): 1; higher = weaker reporter binding; conditions: FMN input: 0 or 200 uM; Eterna round: R93 (includes R88 designs)
Method in brief: (§1)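 Apparent KD stands for the median, per design, of fits to normalised cluster binding curves. The curves came from titrating on-chip-transcribed RNA switches on Illumina sequencing clusters with SNAP-549-labelled MS2 coat protein, twofold from 0.7 or 1.5 nM to 3 µM. Buffer was 100 mM Tris-HCl pH 7.5, 80 mM KCl, 4 mM MgCl2, without or with constant ligand.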

[2] = system: MS2 coat protein; experiment: apparent KD of MS2 coat protein, switch OFF state (with FMN for OFF switches, without FMN for ON switches); designed switch direction (-1 OFF switch, 1 ON switch): 1; higher = weaker reporter binding; conditions: FMN input: 0 or 200 uM; Eterna round: R93 (includes R88 designs)
Method in brief: as §1

Row | Sequence | apparent KD of MS2 coat protein [1] [nM] | apparent KD of MS2 coat protein [2] [nM]
1 | AACAAUCUAUCUGAGGAUAUAUGUCAAAAGACAUGAGGAUCACCCAUGUAAAAACAUGAAAAAUCAUAGAAGGCAGAUAGAUUGA [SS2: 1135] | 67.3 | 88.3
2 | AAAAGACAUGAGGAUCACCCAUGUCAAGACAUAGGAGGAUAUGUCUUGAAAAAAGACUUGACAGAAGGCCUUUGUC [SS1 - 58] | 16.5 | 21.1
3 | AAAAAAAAAUCACAGGAUAUACGAAAAAAAACAUGAGGAUCACCCAUGUGAAAAAAAAAAAAAAAGUAGAAGGGUGAUCCAAAAAA | 12.6 | 8.77
4 | CUGGACAUAGUAUAGGAUAUAUGAAUAGUUACAUGAGGAUCACCCAUGUGCAUUUAUAUGCGAACAUAGAAGGGUGGUAGUUAAG [Mat - Same state - Malcolm Mod - D141] | 88.4 | 48.4
5 | AAACCACAUGAGGAUCACCCAUGUAAAAAUAUGGGAGGAUAUACUAGAAGAAACAAAAUAGUAGAAGGCCUAAAAA [75%, Ex sub1, 28] | 33.6 | 78.1
6 | GGAACUACAGAUCAGGAUAUGUUUGGGUAAACAUGAGGAUCACCCAUGUGCACCCGAUACACAGGACAGAAGGGAUAACGUGGGA [Maondior] | 15.5 | 20.2
7 | AGAAAACAUGAGGAUCACCCAUGUAGAAAUAUGGGAGGAUAUACAAAGACGAAAGUCGAGGUAGAAGGCCUAAAGA [Mat - Same State 1 - Meechl mod - D122] | 21.7 | 103
8 | AACAAUCUAUCUGAGGAUAUCAUGUAAAAGACAUGAGGAUCACCCAUGUAGCAGGAAACUGCAUAUGAGAAGGCAGAUAGAUUGA [SS2: 1120] | 18.4 | 21.3
9 | GAUAGACAUGAGGAUCACCCAUGUAGAAUUAUGGGAGGAUAUACAAAGACGAGAGUCAGAGUAGAAGGCCUAGGAC [salish99-ss1-159] | 23.6 | 58.6
10 | GAAAAACAUGAGGAUCACCCAUGUCGAGAGAGACGAGGAUAUCUGAAUCGAUUAGAUUACGGAGAAGGCGUGAAAG [Mat - Same State 1 - Hyphema mod - D96] | 20.3 | 25.8
11 | AUCAGGAAGAGAGAGGAUAUCCAAAGGAAAACAUGAGGAUCACCCAUGUAAAAGGUAGGAAAUUGGGAGAAGGCUCAAGAGAGAG [salish99-ss2-093] | 26.4 | 29.3
12 | GUAUAUAUAAGACAGGAUAUCCGAAAGUAAACAUGAGGAUCACCCAUGUAAAGAAAGAAACUCAUGGAGAAGGGUCAAUAUAUAC [Mat - Same State 2 - Tesla mod - D83] | 22.2 | 66.7
13 | AAAAAACAUGAGGAUCACCCAUGUAACACUCAUGUAGGAUAUACAAAAAAAAAAAAAAAAGUAGAAGGACAAAAAA [Omei A variation 3] | 143 | 293
14 | GAGAAACAUGAGGAUCACCCAUGUAGAAAUAUGGGAGGAUAUACAGAGACGAGAGUCAAAGUAGAAGGCCUAGAAG [77%, Mat - Mod of Eli - With 4 more G's] | 32.1 | 66.1
15 | AAACCACAUGAGGAUCACCCAUGUAAAAAAUAUGGAGGAUAUACUAGAAGAAACAAAAUAGUAGAAGGCCAAAAAA [75%, Ex sub1, 29] | 20.3 | 24.6
16 | AAAACCUGCGUCGAGGAUAUGUAGCCCACUACAUGAGGAUCACCCAUGUGGAUCUUACUGGGUCGACAGAAGGUGAAAGUUAGGC [Onlele] | 36.3 | 34.7
